Laboratory results: patent US20190359687A1 (Bayer, published 2019)

T1: recombinant human GPA ectodomain (human, UniProt P02724 20-91)
T1 construct: also called recombinant hGPA ECD; recGPA
T1 sequence: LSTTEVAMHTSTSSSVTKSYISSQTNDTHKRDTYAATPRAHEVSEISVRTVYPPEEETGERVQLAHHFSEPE

T2: human glycophorin A in the red blood cell membrane (human, UniProt P02724 20-150)
T2 construct: whole, on cells; used for intact RBC, isolated RBC membranes and transfected cells; the assay field tells which; also called GPA; hGPA
T2 sequence (looked up): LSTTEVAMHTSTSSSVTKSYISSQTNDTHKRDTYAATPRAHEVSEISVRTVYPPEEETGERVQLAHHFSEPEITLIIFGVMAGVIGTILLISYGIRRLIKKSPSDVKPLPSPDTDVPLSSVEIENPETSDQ

T3: purified human glycophorin A protein (Sigma, cat # G5017) (human, UniProt P02724 20-150)
T3 construct: mature; also called Sigma hGPA; Sigma GPA
T3 sequence (looked up): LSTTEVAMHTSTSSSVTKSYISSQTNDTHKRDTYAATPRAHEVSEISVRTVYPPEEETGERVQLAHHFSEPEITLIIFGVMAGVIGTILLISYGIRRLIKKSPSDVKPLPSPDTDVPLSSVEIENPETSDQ


Experiments:
[1] = molecular target: T1, recombinant human GPA ectodomain; test: ELISA, rec hGPA ectodomain
[2] = molecular target: T2, human glycophorin A in the red blood …; test: ELISA, human RBC membranes;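 also: antibodies bound to isolated human red blood cell membrane ghosts coated on 96-well plates, tested 1.5 h at room temperature, bound antibody quantified with a detection antibody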
Method: In order to evaluate binding of antibodies to GPA in the native context of the red blood cell membrane we made use of isolated red blood cell membranes, also called red blood cells ghosts. These membranes are prepared by first isolating red blood cells from citrated whole blood. Citrated whole blood is layered on to Ficol and centrifuged at low speed for 20 minutes to pellet the red blood cells. The supernatant containing plasma and other blood cells is discarded and the red blood cell pellet is subsequently washed 3 times in 10 cell volumes of phosphate buffered saline (PBS). A 10 ml pellet of purified red blood cells is resuspended in 30 ml of cold low osmorality 20 mM phosphate buffer (pH7.4) and incubated for 30 mins to break open the RBC. After Centrifugation at 10,000 rpm for 30 min at 5° C. the hemoglobin containing supernatant is discarded. To the membrane pellet another 30 ml of 20 mM phosphate buffer is added and the sample centrifuged again at 10,000 rpm for 30 min at 5° C. to pellet the membrane fraction. This wash and centrifugation step is repeated another 4 times. The red blood cell membranes are then resuspended in 20 mL of PBS to achieve an equivalent of approximately 2.5E9 cells/mL and stored frozen at −20° C. Binding of antibodies to RBC ghost can be measured by ELISA in which the RBC ghost suspension (5×10⁶ in 100 ul PBS) was added to each well of flat bottom 96-well ELISA microtiter plates (2HB, Immunolon) and the plates incubated overnight at 4° C. The plates were blocked with Starting blocking buffer (Thermo Fisher) for 2 hours at room temperature (RT). Antibodies or other test molecules were added to each well and incubated for 1.5 hours at RT. After 4 washes 100 ul of an appropriate detection antibody was added to each well and incubated for 1 hour at RT. After 4 washes the detection antibody was measured using appropriate detection reagents.

[3] = molecular target: T3, purified human glycophorin A protein …; test: ELISA, native hGPA

binding by ELISA relative to parental [1]	binding by ELISA relative to parental [2]	binding by ELISA relative to parental [3]	Binder
0.91	0.82	0.86	TPP-5322 (Fab, V domains shown, also called VH: (S55G)) VH: EVQLVQSGAEVKKPGASVKVSCKASGYTFTTYTIHWVRQAPGQGLEWIGYINPSGDYTRYNPKFKDRVTLTTDKSTSTAYMELRSLRSDDTAVYYCQTGTRDYWGQGTTVTVSS VL: DIQLTQSPSFLSASVGDRVTITCSAASSVSYIYWFQQKPGKAPKLLIYSTSTLPSGVPSRFSGSGSGTEYTLTISSLQPEDFATYYCHQRNSFPFTFGQGTKLEIKR
0.48	0.43	0.6	TPP-5345 (Fab, V domains shown, also called VL: (I32L)) VH: EVQLVQSGAEVKKPGASVKVSCKASGYTFTTYTIHWVRQAPGQGLEWIGYINPSSDYTRYNPKFKDRVTLTTDKSTSTAYMELRSLRSDDTAVYYCQTGTRDYWGQGTTVTVSS VL: DIQLTQSPSFLSASVGDRVTITCSAASSVSYLYWFQQKPGKAPKLLIYSTSTLPSGVPSRFSGSGSGTEYTLTISSLQPEDFATYYCHQRNSFPFTFGQGTKLEIKR
0.97	0.71	0.95	TPP-5343 (Fab, V domains shown, also called VL: (S28G)) VH: EVQLVQSGAEVKKPGASVKVSCKASGYTFTTYTIHWVRQAPGQGLEWIGYINPSSDYTRYNPKFKDRVTLTTDKSTSTAYMELRSLRSDDTAVYYCQTGTRDYWGQGTTVTVSS VL: DIQLTQSPSFLSASVGDRVTITCSAASGVSYIYWFQQKPGKAPKLLIYSTSTLPSGVPSRFSGSGSGTEYTLTISSLQPEDFATYYCHQRNSFPFTFGQGTKLEIKR
0.83	0.65	0.77	TPP-5335 (Fab, V domains shown, also called VH: (Q97A)) VH: EVQLVQSGAEVKKPGASVKVSCKASGYTFTTYTIHWVRQAPGQGLEWIGYINPSSDYTRYNPKFKDRVTLTTDKSTSTAYMELRSLRSDDTAVYYCATGTRDYWGQGTTVTVSS VL: DIQLTQSPSFLSASVGDRVTITCSAASSVSYIYWFQQKPGKAPKLLIYSTSTLPSGVPSRFSGSGSGTEYTLTISSLQPEDFATYYCHQRNSFPFTFGQGTKLEIKR
1.64	1.72	1.49	TPP-5323 (Fab, V domains shown, also called VH: (D56G)) VH: EVQLVQSGAEVKKPGASVKVSCKASGYTFTTYTIHWVRQAPGQGLEWIGYINPSSGYTRYNPKFKDRVTLTTDKSTSTAYMELRSLRSDDTAVYYCQTGTRDYWGQGTTVTVSS VL: DIQLTQSPSFLSASVGDRVTITCSAASSVSYIYWFQQKPGKAPKLLIYSTSTLPSGVPSRFSGSGSGTEYTLTISSLQPEDFATYYCHQRNSFPFTFGQGTKLEIKR
0.53	0.45	0.56	TPP-5326 (Fab, V domains shown, also called VH: (N61A)) VH: EVQLVQSGAEVKKPGASVKVSCKASGYTFTTYTIHWVRQAPGQGLEWIGYINPSSDYTRYAPKFKDRVTLTTDKSTSTAYMELRSLRSDDTAVYYCQTGTRDYWGQGTTVTVSS VL: DIQLTQSPSFLSASVGDRVTITCSAASSVSYIYWFQQKPGKAPKLLIYSTSTLPSGVPSRFSGSGSGTEYTLTISSLQPEDFATYYCHQRNSFPFTFGQGTKLEIKR
0.97	0.59	0.92	TPP-5333 (Fab, V domains shown, also called VH: (R84S)) VH: EVQLVQSGAEVKKPGASVKVSCKASGYTFTTYTIHWVRQAPGQGLEWIGYINPSSDYTRYNPKFKDRVTLTTDKSTSTAYMELSSLRSDDTAVYYCQTGTRDYWGQGTTVTVSS VL: DIQLTQSPSFLSASVGDRVTITCSAASSVSYIYWFQQKPGKAPKLLIYSTSTLPSGVPSRFSGSGSGTEYTLTISSLQPEDFATYYCHQRNSFPFTFGQGTKLEIKR
0.95	0.75	0.91	TPP-5342 (Fab, V domains shown, also called VL: (S27Q)) VH: EVQLVQSGAEVKKPGASVKVSCKASGYTFTTYTIHWVRQAPGQGLEWIGYINPSSDYTRYNPKFKDRVTLTTDKSTSTAYMELRSLRSDDTAVYYCQTGTRDYWGQGTTVTVSS VL: DIQLTQSPSFLSASVGDRVTITCSAAQSVSYIYWFQQKPGKAPKLLIYSTSTLPSGVPSRFSGSGSGTEYTLTISSLQPEDFATYYCHQRNSFPFTFGQGTKLEIKR
0.77	0.6	0.84	TPP-5344 (Fab, V domains shown, also called VL: (V29I)) VH: EVQLVQSGAEVKKPGASVKVSCKASGYTFTTYTIHWVRQAPGQGLEWIGYINPSSDYTRYNPKFKDRVTLTTDKSTSTAYMELRSLRSDDTAVYYCQTGTRDYWGQGTTVTVSS VL: DIQLTQSPSFLSASVGDRVTITCSAASSISYIYWFQQKPGKAPKLLIYSTSTLPSGVPSRFSGSGSGTEYTLTISSLQPEDFATYYCHQRNSFPFTFGQGTKLEIKR
1.07	0.96	1.11	TPP-5331 (Fab, V domains shown, also called VH: (T72R)) VH: EVQLVQSGAEVKKPGASVKVSCKASGYTFTTYTIHWVRQAPGQGLEWIGYINPSSDYTRYNPKFKDRVTLTRDKSTSTAYMELRSLRSDDTAVYYCQTGTRDYWGQGTTVTVSS VL: DIQLTQSPSFLSASVGDRVTITCSAASSVSYIYWFQQKPGKAPKLLIYSTSTLPSGVPSRFSGSGSGTEYTLTISSLQPEDFATYYCHQRNSFPFTFGQGTKLEIKR
1.12	1	1.02	TPP-5329 (Fab, V domains shown, also called VH: (D66G)) VH: EVQLVQSGAEVKKPGASVKVSCKASGYTFTTYTIHWVRQAPGQGLEWIGYINPSSDYTRYNPKFKGRVTLTTDKSTSTAYMELRSLRSDDTAVYYCQTGTRDYWGQGTTVTVSS VL: DIQLTQSPSFLSASVGDRVTITCSAASSVSYIYWFQQKPGKAPKLLIYSTSTLPSGVPSRFSGSGSGTEYTLTISSLQPEDFATYYCHQRNSFPFTFGQGTKLEIKR
0.91	0.61	0.89	TPP-5328 (Fab, V domains shown, also called VH: (K65Q)) VH: EVQLVQSGAEVKKPGASVKVSCKASGYTFTTYTIHWVRQAPGQGLEWIGYINPSSDYTRYNPKFQDRVTLTTDKSTSTAYMELRSLRSDDTAVYYCQTGTRDYWGQGTTVTVSS VL: DIQLTQSPSFLSASVGDRVTITCSAASSVSYIYWFQQKPGKAPKLLIYSTSTLPSGVPSRFSGSGSGTEYTLTISSLQPEDFATYYCHQRNSFPFTFGQGTKLEIKR
0.34	0.41	0.53	TPP-5324 (Fab, V domains shown, also called VH: (Y57S)) VH: EVQLVQSGAEVKKPGASVKVSCKASGYTFTTYTIHWVRQAPGQGLEWIGYINPSSDSTRYNPKFKDRVTLTTDKSTSTAYMELRSLRSDDTAVYYCQTGTRDYWGQGTTVTVSS VL: DIQLTQSPSFLSASVGDRVTITCSAASSVSYIYWFQQKPGKAPKLLIYSTSTLPSGVPSRFSGSGSGTEYTLTISSLQPEDFATYYCHQRNSFPFTFGQGTKLEIKR
0.89	0.72	0.8	TPP-5334 (Fab, V domains shown, also called VH: (D89E)) VH: EVQLVQSGAEVKKPGASVKVSCKASGYTFTTYTIHWVRQAPGQGLEWIGYINPSSDYTRYNPKFKDRVTLTTDKSTSTAYMELRSLRSEDTAVYYCQTGTRDYWGQGTTVTVSS VL: DIQLTQSPSFLSASVGDRVTITCSAASSVSYIYWFQQKPGKAPKLLIYSTSTLPSGVPSRFSGSGSGTEYTLTISSLQPEDFATYYCHQRNSFPFTFGQGTKLEIKR
0.87	0.58	0.83	TPP-5332 (Fab, V domains shown, also called VH: (K74T)) VH: EVQLVQSGAEVKKPGASVKVSCKASGYTFTTYTIHWVRQAPGQGLEWIGYINPSSDYTRYNPKFKDRVTLTTDTSTSTAYMELRSLRSDDTAVYYCQTGTRDYWGQGTTVTVSS VL: DIQLTQSPSFLSASVGDRVTITCSAASSVSYIYWFQQKPGKAPKLLIYSTSTLPSGVPSRFSGSGSGTEYTLTISSLQPEDFATYYCHQRNSFPFTFGQGTKLEIKR
0.99	0.74	0.98	TPP-5327 (Fab, V domains shown, also called VH: (P62Q)) VH: EVQLVQSGAEVKKPGASVKVSCKASGYTFTTYTIHWVRQAPGQGLEWIGYINPSSDYTRYNQKFKDRVTLTTDKSTSTAYMELRSLRSDDTAVYYCQTGTRDYWGQGTTVTVSS VL: DIQLTQSPSFLSASVGDRVTITCSAASSVSYIYWFQQKPGKAPKLLIYSTSTLPSGVPSRFSGSGSGTEYTLTISSLQPEDFATYYCHQRNSFPFTFGQGTKLEIKR
1.29	0.91	1.2	TPP-5330 (Fab, V domains shown, also called VH: (L70M)) VH: EVQLVQSGAEVKKPGASVKVSCKASGYTFTTYTIHWVRQAPGQGLEWIGYINPSSDYTRYNPKFKDRVTMTTDKSTSTAYMELRSLRSDDTAVYYCQTGTRDYWGQGTTVTVSS VL: DIQLTQSPSFLSASVGDRVTITCSAASSVSYIYWFQQKPGKAPKLLIYSTSTLPSGVPSRFSGSGSGTEYTLTISSLQPEDFATYYCHQRNSFPFTFGQGTKLEIKR
